In the supplement of paper PMC9112550, “Optimization of the antimicrobial peptide Bac7 by deep mutational scanning” (BMC Biology, 2022):

Each sequence was assayed on Escherichia coli TOP10 (assay: shrunken log2 fold change of peptide-encoding DNA abundance (4.5 h post-induction vs induction); higher = less antimicrobial activity (less host growth inhibition)). Conditions: time post-induction: 4.5 h; library: site-saturation at positions 5, 18, 19, 20.
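Also: peptides expressed intracellularly from a pBAD plasmid library in pooled LB shake-flask culture, induced with 0.3% L-arabinose, DNA abundance read by NGS, three biological replicates, DESeq2 with apeglm shrinkage.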

Row | Sequence | shrunken log2 fold change
1 | RRIRHRPPRLPRPRPRPEEYPRP | -0.289
2 | RRIRHRPPRLPRPRPRPEFNPRP | 0.0664
3 | RRIRHRPPRLPRPRPRPEGFPRP | -0.078
4 | RRIRHRPPRLPRPRPRPEGHPRP | 0.065
5 | RRIRHRPPRLPRPRPRPEHIPRP | -0.142
6 | RRIRHRPPRLPRPRPRPEHNPRP | -0.0734
7 | RRIRHRPPRLPRPRPRPEIGPRP | 0.103
8 | RRIRHRPPRLPRPRPRPEKGPRP | -0.00804
9 | RRIRHRPPRLPRPRPRPEKPPRP | -0.01
10 | RRIRHRPPRLPRPRPRPELPPRP | -0.056
11 | RRIRHRPPRLPRPRPRPELTPRP | 0.054
12 | RRIRHRPPRLPRPRPRPEMLPRP | -0.32
13 | RRIRHRPPRLPRPRPRPEMWPRP | 0.263
14 | RRIRHRPPRLPRPRPRPEQAPRP | -0.0477
15 | RRIRHRPPRLPRPRPRPEQTPRP | -0.01
16 | RRIRHRPPRLPRPRPRPERQPRP | -0.0882
17 | RRIRHRPPRLPRPRPRPETKPRP | -0.0652
18 | RRIRHRPPRLPRPRPRPEVCPRP | 0.116
19 | RRIRHRPPRLPRPRPRPEWDPRP | 0.00396
20 | RRIRHRPPRLPRPRPRPEWPPRP | 0.228
21 | RRIRHRPPRLPRPRPRPEYIPRP | 0.00452
22 | RRIRHRPPRLPRPRPRPFACPRP | -0.205
23 | RRIRHRPPRLPRPRPRPFAFPRP | -0.121
24 | RRIRHRPPRLPRPRPRPFAKPRP | -0.362
25 | RRIRHRPPRLPRPRPRPFCKPRP | -0.571

Row | Sequence | shrunken log2 fold change
26 | RRIRHRPPRLPRPRPRPFDQPRP | -0.0783
27 | RRIRHRPPRLPRPRPRPFGLPRP | -0.0904
28 | RRIRHRPPRLPRPRPRPFHWPRP | -0.0742
29 | RRIRHRPPRLPRPRPRPFIGPRP | -0.231
30 | RRIRHRPPRLPRPRPRPFIKPRP | -0.138
31 | RRIRHRPPRLPRPRPRPFIPPRP | 0.0413
32 | RRIRHRPPRLPRPRPRPFKYPRP | -0.115
33 | RRIRHRPPRLPRPRPRPFMSPRP | -0.301
34 | RRIRHRPPRLPRPRPRPFNNPRP | -0.159
35 | RRIRHRPPRLPRPRPRPFPDPRP | 0.0592
36 | RRIRHRPPRLPRPRPRPFPTPRP | -0.0427
37 | RRIRHRPPRLPRPRPRPFQYPRP | -0.147
38 | RRIRHRPPRLPRPRPRPFREPRP | -0.0591
39 | RRIRHRPPRLPRPRPRPFRWPRP | 0.137
40 | RRIRHRPPRLPRPRPRPFSEPRP | -0.591
41 | RRIRHRPPRLPRPRPRPFVWPRP | -0.0616
42 | RRIRHRPPRLPRPRPRPFWQPRP | 0.0187
43 | RRIRHRPPRLPRPRPRPFYIPRP | -1.15
44 | RRIRHRPPRLPRPRPRPFYQPRP | -0.389
45 | RRIRHRPPRLPRPRPRPFYWPRP | -0.0655
46 | RRIRHRPPRLPRPRPRPFYYPRP | -0.0287
47 | RRIRHRPPRLPRPRPRPGEDPRP | 0.0147
48 | RRIRHRPPRLPRPRPRPGERPRP | -0.134
49 | RRIRHRPPRLPRPRPRPGFTPRP | -0.358
50 | RRIRHRPPRLPRPRPRPGHDPRP | 0.0104

Row | Sequence | shrunken log2 fold change
51 | RRIRHRPPRLPRPRPRPGILPRP | -0.111
52 | RRIRHRPPRLPRPRPRPGKFPRP | -0.175
53 | RRIRHRPPRLPRPRPRPGLDPRP | 0.269
54 | RRIRHRPPRLPRPRPRPGMFPRP | -0.178
55 | RRIRHRPPRLPRPRPRPGMVPRP | 0.12
56 | RRIRHRPPRLPRPRPRPGPGPRP | 0.282
57 | RRIRHRPPRLPRPRPRPGQIPRP | -0.00195
58 | RRIRHRPPRLPRPRPRPGRLPRP | 0.129
59 | RRIRHRPPRLPRPRPRPGSPPRP | -0.171
60 | RRIRHRPPRLPRPRPRPGTMPRP | -0.0455
61 | RRIRHRPPRLPRPRPRPGTYPRP | -0.0156
62 | RRIRHRPPRLPRPRPRPGVAPRP | 0.207
63 | RRIRHRPPRLPRPRPRPGVYPRP | -0.138
64 | RRIRHRPPRLPRPRPRPHAIPRP | -0.251
65 | RRIRHRPPRLPRPRPRPHAPPRP | -0.0972
66 | RRIRHRPPRLPRPRPRPHDWPRP | 0.0241
67 | RRIRHRPPRLPRPRPRPHEMPRP | -0.257
68 | RRIRHRPPRLPRPRPRPHFAPRP | -0.101
69 | RRIRHRPPRLPRPRPRPHFGPRP | -0.00776
70 | RRIRHRPPRLPRPRPRPHFPPRP | -0.324
71 | RRIRHRPPRLPRPRPRPHGHPRP | 0.219
72 | RRIRHRPPRLPRPRPRPHHSPRP | -0.147
73 | RRIRHRPPRLPRPRPRPHIRPRP | -0.0193
74 | RRIRHRPPRLPRPRPRPHKAPRP | -0.31
75 | RRIRHRPPRLPRPRPRPHLPPRP | -0.0497
